Values of other authors, collected in paper PMC2996873.

Biological target: RANTES (Homo sapiens) (UniProt P13501)
UniProt P13501, sequence (P13501 27-91): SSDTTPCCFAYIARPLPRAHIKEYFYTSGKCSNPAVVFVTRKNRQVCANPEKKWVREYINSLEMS

Kd: 460 nM
Substance: CCR1 (from UniProt P32246)
